From PMC6160384, “TDP-43 regulates cancer-associated microRNAs”

biological target: TDP-43 (His-TDP-43 wild type) (UniProt Q13148 1-414); test: EMSA; EMSA: LightShift Chemiluminescent RNA EMSA Kit (Thermo), per manufacturer; buffer, salt, pH and temperature not stated; conditions: protein: recombinant; tags: His tag; text says C-terminal (pEASY-E2); label: biotin
Sequence (Q13148 whole entry): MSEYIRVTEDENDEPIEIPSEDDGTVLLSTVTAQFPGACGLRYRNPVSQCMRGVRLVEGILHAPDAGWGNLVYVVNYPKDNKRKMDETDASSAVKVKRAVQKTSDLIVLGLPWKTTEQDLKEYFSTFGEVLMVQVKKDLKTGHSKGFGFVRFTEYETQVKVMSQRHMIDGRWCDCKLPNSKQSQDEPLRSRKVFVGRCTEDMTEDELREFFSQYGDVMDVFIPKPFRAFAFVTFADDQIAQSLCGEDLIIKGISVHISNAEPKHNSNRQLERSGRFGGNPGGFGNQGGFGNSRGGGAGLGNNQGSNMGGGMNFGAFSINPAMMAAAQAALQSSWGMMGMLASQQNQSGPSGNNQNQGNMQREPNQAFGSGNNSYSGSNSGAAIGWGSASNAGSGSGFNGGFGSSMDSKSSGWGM

| Binder | binding result |
| --- | --- |
| CACGCUCAUGCACACACCCACA (ssRNA) [miR-574-3p] | no binding |
| AUGCACCUGGGCAAGGAUUCUG (ssRNA) [miR-500a-3p] | binds |
| AGCUCGGUCUGAGGCCCCUCAGU (ssRNA) [miR-423-3p] | binds |
